How the values were obtained:
SAXS = molecular target: the molecule itself; assay: SAXS
crystal structure = molecular target: the molecule itself; assay: crystal structure
cross-linking = molecular target: the molecule itself; assay: cross-linking
SEC = molecular target: the molecule itself; assay: SEC
[1] = molecular target: Rad50 WT (in MRN);Mre11;Nbs1 (Homo sapiens;Homo sapiens;Homo sapiens, UniProt Q92878;P49959;O60934 1-1312;1-708;1-754, ||); assay: EMSA
[2] = molecular target: Rad50 dCC (in MRN);Mre11;Nbs1 (Homo sapiens;Homo sapiens;Homo sapiens, UniProt Q92878;P49959;O60934 1-1312;1-708;1-754, del614-668;del702-750||); assay: EMSA

B1: HsRad50HCC construct that contains the two interfaces (residues 635 to 730) (domain or fragment, human, UniProt Q92878 635-730, looked up)
chain: SQDFESDLDRLKEEIEKSSKQRAMLAGATAVYSQFITQLTDENQSCCPVCQRVFQTEAELQEVISDLQSKLRLAPDKLKSTESELKKKEKRRDEML
B1: binds (SAXS).

B2: human Rad50 hook and coiled-coil domain, HsRad50HCC182 (residues 585 to 766) (domain or fragment, UniProt Q92878 585-766, looked up)
chain: KEINQTRDRLAKLNKELASSEQNKNHINNELKRKEEQLSSYEDKLFDVCGSQDFESDLDRLKEEIEKSSKQRAMLAGATAVYSQFITQLTDENQSCCPVCQRVFQTEAELQEVISDLQSKLRLAPDKLKSTESELKKKEKRRDEMLGLVPMRQSIIDLKEKEIPELRNKLQNVNRDIQRLKN
B2: binds (crystal structure).

B3: Rad50-48 (S679R, P682R) Rad50HCC182 K599C (domain or fragment, human, UniProt Q92878 585-766, looked up)
chain: KEINQTRDRLAKLNCELASSEQNKNHINNELKRKEEQLSSYEDKLFDVCGSQDFESDLDRLKEEIEKSSKQRAMLAGATAVYSQFITQLTDENQRCCRVCQRVFQTEAELQEVISDLQSKLRLAPDKLKSTESELKKKEKRRDEMLGLVPMRQSIIDLKEKEIPELRNKLQNVNRDIQRLKN
B3: binds (cross-linking).

B4: HsRad50HCC182 S738C (domain or fragment, human, UniProt Q92878 585-766, looked up)
chain: KEINQTRDRLAKLNKELASSEQNKNHINNELKRKEEQLSSYEDKLFDVCGSQDFESDLDRLKEEIEKSSKQRAMLAGATAVYSQFITQLTDENQSCCPVCQRVFQTEAELQEVISDLQSKLRLAPDKLKSTESELKKKEKRRDEMLGLVPMRQCIIDLKEKEIPELRNKLQNVNRDIQRLKN
B4: binds (cross-linking).

B5: HsRad50HCC182 K599C (domain or fragment, human, UniProt Q92878 585-766, looked up)
chain: KEINQTRDRLAKLNCELASSEQNKNHINNELKRKEEQLSSYEDKLFDVCGSQDFESDLDRLKEEIEKSSKQRAMLAGATAVYSQFITQLTDENQSCCPVCQRVFQTEAELQEVISDLQSKLRLAPDKLKSTESELKKKEKRRDEMLGLVPMRQSIIDLKEKEIPELRNKLQNVNRDIQRLKN
B5: binds (cross-linking).

B6: Rad50ΔCC (Rad50HCC182 with residues 614-668 and 702-750 deleted) (domain or fragment, human, UniProt Q92878 585-766, looked up)
chain: KEINQTRDRLAKLNKELASSEQNKNHINNFITQLTDENQSCCPVCQRVFQTEAELQEVISDLRNKLQNVNRDIQRLKN
B6: binds (SEC).

B7: Rad50ΔCC K599C (domain or fragment, human, UniProt Q92878 585-766, looked up)
chain: KEINQTRDRLAKLNCELASSEQNKNHINNFITQLTDENQSCCPVCQRVFQTEAELQEVISDLRNKLQNVNRDIQRLKN
B7: binds (cross-linking).

B8: 83-mer dsDNA (dsDNA)
DNA 1: TTGATAAGAGGTCATTTTTGCGGATGGCTTAGAGCTTAATTGCTGAATCTGGTGCTGTAGCTCAACATGTTTTAAATATGCAA
DNA 2: TTGCATATTTAAAACATGTTGAGCTACAGCACCAGATTCAGCAATTAAGCTCTAAGCCATCCGCAAAAATGACCTCTTATCAA
B8: binds [1]; binds [2].

— publication PMC5625350 (Nature structural & molecular biology, 2017)
